Assay results published in paper PMC12639696, “Death-associated protein kinase 1-dependent SENP1 degradation increases tau SUMOylation and leads to cognitive dysfunction in a mouse model for tauopathy” (Molecular Neurodegeneration, 2025).

Target: T1, His-DAPK1 (848–1288 aa) (UniProt P53355 848-1288)
T1 construct: source: purified recombinant protein
T1 sequence (looked up): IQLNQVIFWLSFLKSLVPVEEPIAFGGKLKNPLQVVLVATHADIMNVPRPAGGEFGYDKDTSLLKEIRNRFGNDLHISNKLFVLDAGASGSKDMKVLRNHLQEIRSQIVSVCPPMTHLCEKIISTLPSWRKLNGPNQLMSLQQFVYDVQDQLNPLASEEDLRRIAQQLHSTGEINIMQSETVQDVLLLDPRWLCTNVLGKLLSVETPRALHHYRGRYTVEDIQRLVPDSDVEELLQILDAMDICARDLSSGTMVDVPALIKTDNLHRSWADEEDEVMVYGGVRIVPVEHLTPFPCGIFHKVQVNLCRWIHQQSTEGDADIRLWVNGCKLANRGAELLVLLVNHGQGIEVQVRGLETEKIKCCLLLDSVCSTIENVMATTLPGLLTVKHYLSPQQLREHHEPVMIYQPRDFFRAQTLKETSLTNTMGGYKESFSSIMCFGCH
Experiment: pull-down; purified His-DAPK1 (848–1288 aa) incubated with GST or GST-SENP1 proteins; immunoblot with an anti-His antibody
Conditions: both partners purified

binding result: binds
B1: GST-SENP1 (1-200 aa) (domain or fragment, UniProt Q9P0U3 1-200, looked up)
chain: MDDIADRMRMDAGEVTLVNHNSVFKTHLLPQTGFPEDQLSLSDQQILSSRQGHLDRSFTCSTRSAAYNPSYYSDNPSSDSFLGSGDLRTFGQSANGQWRNSTPSSSSSLQKSRNSRSLYLETRKTSSGLSNSFAGKSNHHCHVSAYEKSFPIKPVPSPSWSGSCRRSLLSPKKTQRRHVSTAEETVQEEEREIYRQLLQM
notes: Sentrin-specific protease 1 (SENP1), N-terminal region, residues 1-200; also called N-terminal region (1-200 aa) of SENP1; source: E. coli, purified GST fusion protein
